Test: yeast display, Sf9 membrane polyspecificity reagent, FACS + sequencing; frameworks hold sequencing errors
Method in brief: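 After 36–48 hours of galactose induction, yeast (Saccharomyces cerevisiae BJ5465) displaying a synthetic nanobody library were stained at 4 °C for 1 hour with 10% biotinylated, detergent-solubilized Sf9 membrane reagent. Streptavidin microbeads enriched the stained cells before FACS sorting into low and high (top ~1%) gates on anti-HA and streptavidin fluorescence. Each clone's polyreactivity label reflects its gate of origin.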

Row | Sequence | polyreactivity (PSR sort gate)
1 | QVQLVESGGGLVQAGGSLRLSCAASGSTLYSYVMGWYRQAPGKERELVAAIRSSGGSTYYADSVKGRFTISRDNAKNTVYLQMNSLKPEDTAVYYCAKEWKVDVASKFLYHYYYWGQGTQVTVSS | high polyreactivity
2 | QVQLVESGGGLVQAGGSLRLSCAASGITFEDYAMGWYRQAPGKERELVAAISWSGDITYYADSVKGRFTISRDNAKNTVYLQMNSLKPEDTAVYYCAADLSPYGYDYWGQGTQVTVSS | low polyreactivity
3 | QVQLVESGGGLVQAGGSLRLSSDASGSIFHTYAMGWYRQAPGKERELVAAITVSGGDTYYADSVKGRFTISRDNAKNTVYLQKISLKAEDTAVYYCAVDTTTSYTVEYDYWGQGTQVTVSS | low polyreactivity
4 | QVQLVESGGGLVQAGGSLRLSCAASGSIFGPYAMGWYRQAPGKERELVAAITWTGGRTYYADSVKGRFTISRDNAKNTVYLQMNSLKPEDNAVYYCAADYSPSTWYLYYTLYYYWGQGTQVTVSS | low polyreactivity
5 | QVQLVESGGGLVQAGGTLRLSCSASGGTIAIYAMGWYRHARGKEREMVARISYSSGSTHYADSVKGRFTISRDNAKNTVFLQMNSLKPEDSAVYYCAATAYWFYAKDYYWGQGSQVTVSS | high polyreactivity
6 | QVQLEESGGGLVQAGGSLRLSCAASGSTFFIYAMGWYRQAPGKEREMVAAISGSGGTTYYADSVKGRFTISRDNAKNTVYLQMNSLKPEDTAVYYCAARTFSAFWRGGYDYWGQGTQVTVSS | low polyreactivity
7 | QVQLVESGGGLVQAGGSLRLSCAASGFIIKYYAMGWYRQAPGKERELVAAISSGGRTYYADSVKGRFTISRDNAKNTVYLQMNSLKPEDTAVYYCAKTFRKSYDWGQGTQVTVSS | high polyreactivity
8 | QDQLVESGGGLVQARGSLRLSCAASGRIIKTNAMGWYRQAPGKERELVAAISSSGGRTYYADSVKGRFTISRDNAKNTVYLQMNSLKPEDTAVYYCAAPSLVSFGYWGQGTQVTVSS | high polyreactivity
9 | QVQLVESGGGLVQAGGSLRLSCAASGSIFGFYAMGWYRQAPGKEREFVASISDSSGSTYYADSVKGRFTISRDNAKNTVYLQMNSLKPEDTAVYYCNARVNYRWPYSWRYYWGQGTQVTVSS | high polyreactivity
10 | QVQLVESGGGLVQAGGSLRLSCAASGGIFRGNAMGWYRQAPGKERELVAAISSSGGSTYYADSVKGRFTISRDNAKNTVYLQMNSLKPEDTAVYYCAATRYSTRFGARGYWGQGTQVTVSS | high polyreactivity
11 | QVQLVESGGGLVQAGGSLRLSCAASGSTFTLYAMGWSRQAPGKERELVAAISRSGGRTYYADSVKGRFTISRDNAKNTVYLQMNSLKPEDTAVYYCNAPYKQDYDYWGQGTQVTVSS | high polyreactivity
12 | QVQLVESGGGLVQAGGSLRLSCAASGYIFVIYAMGWYSQAPGEERELVAAISWSGDTTYYADSVKGRFTISRDNAKNTVYLQMNSLQPEDTAVFYCNAETAYYQVDYCGQGTQVTVSS | low polyreactivity
13 | QVQLVESGGGLVQAGGSLRLSCAASGITFDTYAMGWYRQAPGKERELVAAISSSGSTNYADSVKGRFTISRDNAKNTVYLQMNSLKPEDTAVYYCATDYWPGTGGNYDYWGQGTQVTVSS | low polyreactivity
14 | QVQLVESGGGLVQAGGSLRLSCAASGSIFVGNVMGWYRQAPGKERELVAAISRTGGTYYADSVKGRFTISRDNAKNTVYLQMNSLKPEDTAVYYCNKVSLRQSRMYYWGQGTQVTVSS | high polyreactivity
15 | QVQLVESGGGLVQAGGSLRLSCAASGSTLDFNAMGWYRQAPGKERELVAGISRDGGSTYYADSVKGRFTISRDNAKNTVYLQMNSLKPEDTAVYYCAVDFLDWYQDYYITYDYWGQGTQVTVSS | low polyreactivity
16 | QVQLVESGRGLVQAGGSLLLICAASGSTFYTNAMGWYRQAPGKERELVASITGGGSTYYADSVKGRFTISRDNAKNTVYLQMNSLKPEDTAVYYWAAVNFGGGWEFDSWGQGTKVTVSS | low polyreactivity
17 | QVQLVESGGGLVQAGGSLRLSCDASGSIFEYYAMGWYRQAPGKERELVAAIRVSDVNTYYADSVKGRFTISRDNAKNTVYFQMNSLKPEDTAVYYCANAYKGYSDFDYWGQGTQVTVSS | high polyreactivity
18 | QVQLVESGGGLVQAGGSLRLSCAASGGIFAYYTMGLYTQDHGKERELVAAISTSSVNTYYADSVKGRFTISRDNAKHTVYLQMNSLKQEVNAVYYCAAEVYYGYDYCGQGTQVTVSS | low polyreactivity
19 | QVQLVESGGGLVQAGGSLRLSCAASGRTFRYYTMGWYRQAPGKERELVAAITVGSRTNYADSEKGRFTISRDNAKNTVYFQMNSLKAEDTAVYYCARRSYYQYRYDYWGQGTQVTVSS | high polyreactivity
20 | QVQLVESGGGLVQAGGSLRLSSAASGRTFAGYTMGWYRQAPGKERELVAAITKSGGSTYYADSVKGRFTISRDNAKNTVYLQMNSLKPEDTAFYYCAARYIPSRYGTGGGYYSWGQGTQVTVSS | high polyreactivity
21 | QVQLVESGGGLFQAGGSLRLSCAASGFTPGNVRGCYRQAPGKERELVAAISWSADSTYYADSVKGRFTISRDNAKNTVNLQMKSLKREDSAVYYCSADGVPGRAVDYEYWRQGTQVTVSS | high polyreactivity
22 | QVQIVESGGGLVQAGGSLRFSCAASGRIFIYNAMGWYRQAPGKERELVAAISRTGGRTYYADSVKGRFTISRDISKNTVYLQMNSLKPEDTAVYYCAARNRGQYYSWGQGTQLTVSS | high polyreactivity

Row | Sequence | polyreactivity (PSR sort gate)
23 | QVQLVESGGGLVQAGGSLRLSCAASGSILSSYAMGWYRQAPGKERELVAAISWRGGPTYYADSVKGRFTISRDNAKNTVYLQMNSLKPEDTAVYHCAAEFYDHPWLYDYWGQGTQVTVSS | low polyreactivity
24 | QVQLVESGGGVVQAGGSLRLSCAASGFTFGVYAMRGYRQAPGKERELVAAISSRGGSTYYADSVKGRFTISRDNPTNPVYLQMNSLKPEDTAVYYCAKRLGNTVGKDDYWGQGTQVTVSS | low polyreactivity
25 | QVQLVESGGGLVQAGGSLRLSCAASGSTINQYAMGWYRQAPGKERELVAAITRRGGSTYYADSVKGRFTISRDNAKNTVYLQMNSLKPEDTAVYYCAAAYPYTTVSYDYWGQGTQVTVSS | high polyreactivity
26 | QVQLVESGRGLVQAGGSLRLSSAASGSTFHQYTMGWYRQAPGKERELVAGITYRGGSTYADSVKGLFTISRDNAKNTVYLQMNSLKPDDTAVYYCNATPDSVRWDYALSVVRYDYWGQGTQVTVSS | low polyreactivity
27 | QVQLVESGGGLVQAGGSLRLSCAASGSIFGRNDMGWYRQAPGKERELVARITRGGSTNYADSVKGRFTISRDNAKNTVYLQMNSLKPEDTAVYYCAKEFKYWGYPYDYWGQGTQVTVSS | low polyreactivity
28 | QVQLVESGGGLVQAGGSLRLSSAASGSTFPYNAMGWYRQAPGKARELVAAITSRGGSTYYADSVKGRFTISRDNAKNTVYLQMNSLKPEDTAVYYCATPGDTYGWTRRRYYYWGQGTQVTVSS | high polyreactivity
29 | QVQLVESAVGLVQAGGSLRLSCAASGTTFVRYAMGWYRQAPGKEREFVAASSKSGGSTYYADSVKGRFTISRDNAKNPVYLQMNSLKPEDTAVYYCATRTTYGQSGSAGPRPSNYWGQGTQVTVSS | low polyreactivity
30 | QVQLVESGGGLVQAGGSLRLSCAASGRTFVGYAMGWDRQAPGKERELVATITSSGRTNYADSVKGRCTISRDNAKNTVYLQMNSLKPEDTAVYYCNKQRTRWYDYWGQGTQVTVSS | high polyreactivity
31 | QVQLVESGGGLVQAGGSLRLSCAASGSIFRRYAMGWYRQAPGKESELVAAITWGGGRTYYADSVKGRFTISRDNAKNTVYLQMNSLKPEDTAVYYCNAERSVYASGKSYLYDYWGQGTQVTVSS | high polyreactivity
32 | QVQLVESGGGLVQAGGSLRLSCAASGRTFAGNAMGWYRQAPGKERELVAAISQGGGSTYYADSVKGRFTISRDNAKNTVYLQMNSLKPEDTAVYYCAVDFRRYPGFDYWGQGTQVTVSS | low polyreactivity
33 | QVQLVESGGGLVQAGGSLRLSCAASGRTFKYNAMGWYRQAPGKERELVAAISSTGSTNYADSVKGRFTISRDNAKNTVYLQMNSLKPEDTAVYYCAASYYFVQWGWYYYWGQGTQVTVSS | low polyreactivity
34 | PVLLVECGGALVQAGGSLRLTSAASGRIIKLYAMGWYRQAPGKVREFVAALTRSGARTYYADSVKGRFTISRDNAKNTVYFQMYSMKPEDSAVYSCAAYDTYDWYDYWGQGTQVTVSS | high polyreactivity
35 | QVQLVESGGGLVQAGGSLRLSCAASGSTFATYAMGWYRQAPGKERELVAAITSGGSTYYADSVKGRFTISRDNAKNTFYFQMNSLKPEDTAVYYCAARSAGWRRATYYKREEYWGQGTQVTVSS | high polyreactivity
36 | QVQLVESGGGLVQAGGSLRLSCAASGSIFRYYAMGWYIQAPGKERELVASITRGGTRTYYADSVKGRFTISRDYAQNTVYLQMNSLKPEDTAVYYCAATYAWYVAPTYDYWGQGTQVTVSS | high polyreactivity
37 | QVQLVESGGGLDQAGGSLRLSCAASGSTFGGNAMGWYRQAPGKERELVAAISGGDRTNYADSVKGRFTISRDNAKNSVYLQMNSLKPEDTAVYYCAADAGYWDLRSGIYKEDYWGQGTQVTVSS | low polyreactivity
38 | QVQHVESGGGLVQAGGSLRLSCAASGFIFGRYTMGWYRQAPGKERELVAAISRGGITNYADSVKGRFTISRDNAKNTVYLQMNSLKPEDTAVYYCNAVGVRPGFKGFDYWGQGTQVTVSS | high polyreactivity
39 | QVQLVESGGGLVQAGGSLRLSCAASGSTFRSNAMGWYRPAPGKERELVAAISSRVGTTYYADSVKGRFTISRDNAKNTVYLQMNSLKPEDTAVYYCAAQGWRYYRTVVPMDYWGQGTQVTVSS | low polyreactivity
40 | QVQLVESGGGLDQAGGSLRLSCAASGFIINRNAMGWYRQAPGKERELVADITGGSTYYADSVKGRFTISRDNAKNTVYLQMNSLKPEDNAVYYCAADVLRITTLLFRGTGFDSWGHGTQVTVSS | low polyreactivity
41 | QVQLVDSGGGLVQAGGSLRLSCAASGLTFRYYAMGWYRQAPGKERELVASISWSGASTYYADSVKGRFTISRDNAKNTVYLQMNSLKPEDTAVYYCNAGYFGSYDYWGQGTQVTVSS | high polyreactivity
42 | QVQLVESGGGLVQAGGSLRLSCAASGFTFKWYAMGWYRQAPGKERELVATITIGGRTNYADSVKGRFTISRDNAKNTVYLQMNSLKPEDTAVYCCATFFVGFRLSDYDYWGQGTQVTVSS | low polyreactivity
43 | QVQLVESGGGLVQAGGSLRLSCAASGITFLSNAMGWYRQAPGKERELVAAISRGGGTTYYADSVKGRFTISRDIAKNTVYLQMNSLKPEDTAVYYCAKGRCSSSRFDYWGQVTQVTVSS | high polyreactivity

From the nanobody polyreactivity screen of Harvey et al. (2022)
